Measurements as given in article PMC4987623, “The tetrameric MotA complex as the core of the flagellar motor stator from hyperthermophilic bacterium” (Scientific Reports, 2016).

What was measured:
[1] = target: the molecule itself; experiment: cross-linking; about 0.5 mg/mL purified His-MotA in PN buffer (50 mM NaPO4 pH 7.0, 150 mM NaCl) with 0.1% (w/v) DM, 20 °C, 0-5 mM BS3 for 5 min; SDS-PAGE, CBB staining and immunoblot
[2] = target: the molecule itself; experiment: cross-linking; about 0.5 mg/mL purified His-MotA in PN buffer (50 mM NaPO4 pH 7.0, 150 mM NaCl) with 0.1% (w/v) DM, 20 °C, 20 mM EDC for 0-120 min; SDS-PAGE, CBB staining and immunoblot
[3] = target: the molecule itself; experiment: negative-stain electron microscopy, single particle 3D reconstruction; MotA complex from the 210 kDa gel filtration fraction, stained with 2% uranyl acetate; 2-fold rotational symmetry applied; 25 Å resolution

B1: MotA from Aquifex aeolicus with N-terminal histidine tag (His-MotA^Aa) (natural protein, UniProt O67122 1-254, looked up)
chain: MDVGTIIGIIAAFLLILISILIGGSITAFINVPSIFIVVGGGMAAAMGAFPLKDFIRGVLAIKKAFLWKPPDLNDVIETIGEIASKVRKEGILALEGDIELYYQKDPLLGDMIRMLVDGIDINDIKATAEMALAQLDEKMSTEVAVWEKLADLFPAFGMIGTLIGLIQMLRNLNDPSALGPGMAVALITTLYGAILANAFAIPVANKLKKAKDMEVLVKTIYIEAIEKIQKGENPNVVKQEAAIMLGVELPEEV
notes: MotA, flagellar motor stator protein of Aquifex aeolicus; full-length motA gene cloned into pColdI; four transmembrane helices, cytoplasmic residues 54-149 and 205-254; Expressed from pColdI-motA^Aa without MotB; 28 kDa with the tag; source: E. coli BL21-CodonPlus(DE3)-RIPL, membrane fraction solubilized in detergent, purified (Ni-NTA agarose, gel filtration); not shown: His6, N-terminal, kept
With B1 the “stoichiometry N” value [1] was 2, the “stoichiometry N” value [2] was at least 4 and the “stoichiometry N” value [3] was 4.
